Assay: yeast display, Sf9 membrane polyspecificity reagent, FACS + sequencing; frameworks hold sequencing errors
Procedure, shortened: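 Polyreactivity labels are assigned by the sorting gate from which each nanobody was recovered. The gates were low and high (top ~1%), set on anti-HA fluorescence for expression and streptavidin fluorescence for reagent binding. Before sorting, galactose-induced (36–48 hours) yeast display cells were stained for 1 hour at 4 °C with 10% biotinylated, detergent-solubilized Sf9 membrane reagent.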

Sequence	polyreactivity (PSR sort gate)
QVQLVETGGGLVQAGGSLRLSCPASGRTFAKYAMGRYRQAPGKERELVAAISDSGGSTYYEDSVKGRFTISRDNAKNTVYLQMNSLKPEDTAVYYCAADGRYTYYWGQGTQVTVSS	high polyreactivity
QVQLVESGGGLVQAGGSLRLSCAASGRIFRGYAMGWYRQAPGKERELVAAISGRGGRTNYADSVKGRFTISRDNAKNTVYLQMNSLKPEDTAVYYCATVPYTASRYEYWGQGTQVTVSS	high polyreactivity
QVQLVESGGGLVQAGGSLRLSCAASGSIFGGNTMGWYRQAPGKERELVAAIRYSGGSTYYADSVKGRFTISRDNAKNTVYLQMNSLKPEDTAVYYCATSYRQYGYYWYDYWGQGTQVTVSS	high polyreactivity
QVQLVESGGGLVQAGGSLRLSCAASGRIFWPNAMGWYRQAPGKERELVAAISYSGGSTYYADSVKGRFTISRDNAKNTVYLQMNSLKPEDTAVYYCAATRSVRISGDGYLGYDYWGQGTQVTVSS	high polyreactivity
QVQLVESGGGLVQAGGSLRLSCAASGFTFGSYAMGWYRQAPGKERELVAAITRSGGGTYYADSVKGRFTISRDNAKNTVYLQMNSLKPEDTSVYYCAAGALQRGVYGFGYWGQGTQVTVSS	high polyreactivity
QVQLEESGGGLVQAGGSLRLSCAASGSTFDRYGMGWYRQAHWKERELVAAINSGDITNYADSVKGRFTISRDNAKNTVYLQMNSLKPEDTAVYYCAATQSRYYSDDPYYYWGQGTQVTVSS	low polyreactivity
QVQLVESGGGLVQAGGRLRLSCAASGFIFKYNAMGWSRQAPGKERELVAAISRGGRTYYADSVKGRFTISRDNAKNTVYLQMNSLKPEDTAVYYCAAVSHYPAGYDYWGQGTQVTVSS	high polyreactivity
QVQLVESGGGLVQAGGSLRLSCAASGRIFFSYAMGWYRQAPGKERELVAAITSGGSTNYADSVKGRFTISRDNAKNTVYLQMNSLKPEDTAVYYCNKARSSGYNFGYWGQGTQVTVSS	low polyreactivity
QVQLVESGGGLVQAGGSLRLSCAASGFIYRYNVMGWYRHAPGKEMEMVAAISTSGGRTYYADSVKGRFTISRDNAKNTVYLQMNSLKPEDSAVYYCNAVKSEVQKVGDGYYWGLGTQVTVSS	high polyreactivity
QVQLVESGGGLVQAGGSLRLSCAASGSTFIVKAMGWYRHAPGKERELVAAITEDGDTTYYADSVKGRFTISRDNAKKTVYLQMNSLKPEDTAVYYCAAETYYLDDYWGQGTQVTVSS	high polyreactivity
QVQLVESGGGLVQAGGSLRLSCAASGATFYVYAMGWYRQAPGKERELVAAIRYRGGTTHYADSVKGRFTISRDNAKNTVYVQMNSLKPEDTAVYYCAADGYVYRSGRRYDYWGQGTQVTVSS	high polyreactivity
QVQLVESGGGLVQAGVSLRLSCAASGSIFGGYAMGWYRQAPGKERELVAVISTRGGRTYYADSVKGRFTISRDNAKYTVYLQMNSLKPEDTAVYYCAANRQYTEYNYWGQGTQVTVSS	high polyreactivity
QVQLVDSGGGLVQAGGSLRLICAASGSISSYYAMVWYRQAPGKERELVAAITSGGRTYYADSVKGRFTISRDNAKNTVYLQMNSLKPEDTAVYYCNARTARNPIKGRASYYWGQGTQVTVSS	high polyreactivity
QVQLVESGGGLVQAGGSLRLSCAASGSIFAGNVMGWYRQAPGKESELVAAISRRGGRTYYADSVKGRFTISRDNAKNTVYLQMNSLKPEDTAVYYCAARRDPVLGKSDYWGQGTQVTVSS	high polyreactivity
QVQLVESGGGLVQAGGSLRLSCAASGSTFVWNAMGGYRQAPGKERELVAAITNDGRTNYADSVKGRFTISRDNAKNTVYLQMNSRKPEDTAVYYCNADGYNSYWWNYYWGQGTQVTVSS	low polyreactivity
QVQLVESGGGLVQAGGSLSLSCAASGRTFYANAMGWNRQAPGKERELVATITRGGSTNYADSVKGRFTISRDNAKNTVYLQMNSLKPEDTAVYYCAARSYTSSHRHYYWGQGTQVTVSS	low polyreactivity
QVQLGESGGGLVQAGGSLRLSCAASGRISGYAMGWYRQAPGKERELVAAISKSAARTYYADSVKGRFTISRDNAKNTVYLQMNSLKPEDTAVYYCAADKPYRYDYWGQGTQVTLSS	high polyreactivity
QVQLVESGGGLVQAGGSLRLSCAASGSTFSRYAMGWYRQAPGKERELVAAISQGGGRTYYADSVKGRFTISRDNAKNTVYLQMNSLKPEDTAVYYCAAREYYRKPYDHWGQGTQVTVSS	high polyreactivity
QVQLVESGGGLVQAGGSLRLSCAASGLIFSYNAMGWYRQAPGTEMELVASITGGGSTYYADSVKGRFTISRDNAKNTVYFQIKSQKPEDTAVYYCAVVRLWYAQPAAGFRAGGGYWGQGTQVTLSS	low polyreactivity
QVQLVESGGGLVQAGGSLRLSFAASGRTFVLYTMGWYRQAPGKERELVAAISVGGALTYYADSVRGRFTISRDNAKNTVYLQMNSLKPEDSAVYYCAARRHSRVKYRDYWGQGTQVTVSS	high polyreactivity
QVQLVESGGGLVQAGGSLRLSWAASGRIFASYAMGWYRQATGKERELVAAISGSGGSTYYADSVKGRFTMSRDNAKKTVYLQLNSLKPEDTAVYYCAARYRSYWYRYVGYDYWGQGTQVNVSS	high polyreactivity

Sequence	polyreactivity (PSR sort gate)
QVQLVDSGGGLVQAGGSLRLSCSASGSTFSVYAMGWYRQAPGKERELVAAITSGGSTNYADSVKGRFTISRDNAKNTVYLQMNSLKPEDTAVFYCNAYYVLIGYQPHWGYYWGQGTQVTVSS	low polyreactivity
QVQLVESGGGLVQAGGSLRLSCAASGFSSVRNDMGWYRQAPGKERELVAAISSGDTKDYADSVKGRFTISRDNAKNTVYLQMNSLNPEDTSVYYCAAVYYGRYYYWGQGTQVTVSS	low polyreactivity
QVQLVESGGGLVQAGGSLRLSCAASGRIFGWYAMGWYRQAPGKERELVAAIDGGDDSTYYADSVKGRFTISRDNAKNTVYLQMNSLKPEDTAVYYCAVVGYNWGQGSQVTVSS	low polyreactivity
QVQLVESGGGLVQAGGSLRLSCAASGRTFRVYAMGWYRQAPWKERELVAAISGRGGRTYYADSVKGRFTISRDNAKNTVYLQMNSLKPEDTAVYYCTADVGVYHDDYWGQGTQVTVSS	high polyreactivity
QEQLQESGGGQVQAGGSLLLSCAASGNIIRYYYMGWYRQAPGKERELVAAITYGTSTNDADSVKGRFTISRDNAKNTVYLQMNSLKPEDTAVYYCAVDVNYGDPLDNWGQGTQVTVSS	high polyreactivity
QVQLVESGGGLVQAGGSLRLSCDASGPIFAWNGMGWYRPAPGKERELVAVITSGGNTNYADSVKGRFTFSLDNAKNTVFIQMNSLKPEDTAVYDCATKGYAKRTRFWSHYDYWGQGTQVNVSS	high polyreactivity
QVQLVESGGGLVQAGGSLRLSCAASGFIFLAYTMGWYRQAPGKERELVAAISTSGGSTYYEDSVKGRFTISRDNAKNTVYLQMNSLKPEDTAVYYCAARYRWGRYDYWGQGTQVTVSS	high polyreactivity
QVQLVESGGGLVHAGGSLRLSCAASGRTFDIYAMGWYRQAPGKERELVAAISSGGSTYYADSVKGRFRISRDNAKKTVYLQKNSLKPEDTAVYYCAVRWYDQVSRRGIGYYWGQGTQVTVSS	low polyreactivity
QVQLVESGGGLVQAGGSHRISCAASGNTFVINTMGWYRQAPGKERELVAGISRRGTSTYYADSVKGRFTISRDNAKNTVYLQMNSLKPEDTAVYYCAVYAEIVRYEYWGQGTQVTVSS	high polyreactivity
QVQLVESGGGLVQAGGSLRLSCAASGSIFDANAMGWYRQAPGKEREVVAAISYRGGRTYYADSVKGRFTISRDNAKNTVYLQMNSLKPEDTAVYYCNAGISHRSDNGIDGYYWGQGTQVTVSS	high polyreactivity
QVQLVESGGGLVQAGGSLRLSCAASGSIFYDNDMGWYRQAPGNERELVAAISWSASDTYYADSVKGRFTISRDNAKNTVYLQMNSLKPDDTAVYYCNAEVYEWYVVYSALDYWGQGTQVTVSS	low polyreactivity
QVQLVESGGGLVQSGGSLRLSCAATGSTFWNYAMGWYRQAPGKERELVAAITRGSSTNYADSVKGRFTISRDNAKNTVYLQMNSMKPEDTAVYYCAKRVGRWSAFYYWGQGTQVTVSS	high polyreactivity
QVQLVESGGGLVQAGGSLRLSCAASGSIFVLNAMGLYRQAPGKERELVAGISSSGGSTYYADSVKGRFTISRDNAKNTVYLQMNSLKPEDTAVYYFAKDAGLYEGDYWGQGTQVTVSS	low polyreactivity
QVQLGESGGGIVQAGGSLRLSCAASGRTLQQYVMGWYRQAPGKETELVAAITRGGRTNYADSVKGRFTISRDNAKNTVYLQRNSLKPEDTAVYYCNSRYPSRLVAWLDYWGQGTQVTVSS	low polyreactivity
QVQLVESGGGLVQAGGSLRLRCAASGLIFPVYAMGWYRQEPGKEREFVAAITYDGGNTYYADSVKGRFTISRDNAKNTVYLQMNSLKPEDTAVYYCNRRYPGPDSFEHYYYYRYDYWGQGTQVTVSS	low polyreactivity
QVQLVESGGGLVQAGGSLRLSCAASGRTFEHYAMGWYRQAPGKEREFVAVIDSSDGSTYYADSVKGRFTISRDNAKNTVYLQMNSLKPEDTAVYYCLGGYYYLQYDYWGQGTQVTVSS	low polyreactivity
QVQLVESGGGLVQAGGSLRLSCAASGFIYDYAMGWYRQAPGKEREFVARINWSGGSTYYADSVKGRFTISRDNAKNTVYLQMNSLKPEDTAVYYCATSGWAWRSSNPYEYWGQGTQVTVSS	low polyreactivity
QVQLVESGGGLVQAGGSLRLSCAASGFTFYSYTMGWYRQAPGKERELVAAISGRSVRTYYADSVKGRFTISRDNAKNTVYLQMNSLKPEDTAVYYCARAYYWRTSWYNYWGQGTQVTVSS	high polyreactivity
QVQLVESGGGLVQAGGSLRLSCAASGRTFFDYTMGWYRQAPGKERELVAAITGGDGSTYYADSVKGRFTISRDNAKTTVYLQMNSLKPEDTAVYDCAAEYTRTYWYAAMDYWGQGTQVTVSS	low polyreactivity
QVQLVESGGGLVQAGGSLRLSCAASGSIFTDYAMGWYRQAPGKERELVATITWSDASTYYTDSVKGRFTISRDNAKNTVYLQMNSLIPEDTAVYYCARRSRYSKGYDYWGQGTQVTVSS	low polyreactivity

Reference: the nanobody polyreactivity screen of Harvey et al. (2022)
